This note sets out measurements from article PMC6037025.

In the test the target is CHIP (UniProt Q9UNE7). The test is described as follows: co-IP with anti-MYC-agarose, Western blot. The settings on record: reference: Flag-IRS4 wild type; sites S859. A general note: A western blot detects proteins with antibodies after separation by electrophoresis.

For “IRS4 (from UniProt O14654) Flag-IRS4 S859A”, the “binding against the reference” value was “lost”.
